The RNAGym collection of RNA variant scans (doi:10.1073/pnas.2313332121)

B1: TPR t1 (parent)
chain: GACCAAUCUGCCCUCAGAGCUCGAGAACAUCUUCGGAUGCAGAGGAGGCAGGCUUCGGUGGCGCGAUAGCGCCAACGUCCUCAACCUCCAAUGCAUCCCACCACAUGAUGAUGCCUGAAGAGCCUUGGUUUUUUG

Variants of: B1
Experiment: polymerase ribozyme fitness, log enrichment relative to wild type (log ratio); higher = more active; in vitro selection for triplet polymerase activity
How it was run: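 To select mutant libraries of each subunit of a heterodimeric triplet polymerase ribozyme, built by PCR and transcribed, each was annealed with a biotinylated primer, partner subunit and triplets, then incubated frozen at −7 °C. Extended constructs were gel-excised, captured on streptavidin beads and amplified by RT-PCR, in one round carried out in triplicate. Illumina sequencing of input and output libraries kept genotypes with ≥10 input reads and ≥1 read per output. Fitness is the base-2 logarithm of genotype enrichment relative to wild-type enrichment, from inverse-variance-weighted replicate averages.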

Variant | polymerase ribozyme fitness (log ratio)
G23U C64U | -4.56
A24G G128A U130G | -4.18
A26U C123G | -1.74
A27C C85U C123U | -3.3
C22U C115U | -4.01
A24G C53U | -2.07
C22G C56G C86U C124U | -3.03
A24U G60A | -4.63
G25A G71A C79G C115U | -7.59
G23U C31G C102G C124A | -6.83
A26U A74G C98U | -4.46
A27C C124A | -0.901
A26U U59A G63A | -5.57
A27G A37U A121G | 0.646
A26U C53U A74G G77U U125A | -4.77
G25A C49A G57A C89U C97G C115G | -6.47
A27G G42A C73G | -5.22
C22U A27U G45C U54G C56G G63C A121U | -5.28
A27U A46U | -4.77
A24C A50C G52U A111C | -6.93
G23C G69A | -7.97
C22G G45A | -3.31
G25U A37U C40U G44U G47C C64A U106G U112A | -6.12
G25U C56U C123G | -6.4

Variant | polymerase ribozyme fitness (log ratio)
G25C A119G | -6.74
A26G G60U G77A A84C C102G U112A U116C | -5.99
G25A C40U G63A G113C U129A | -6.66
G23A C73A A83G G120U | -6.38
A24G G47A | -2.63
A24G G69A | -4.71
A24G G69U | -0.509
C22G C80A C101U C124A | -3.81
A27G U112A | 1.03
A26G G93A C114A | -3.14
G23A G69U G93U | -4.63
A26G C28A G113A | -4.3
G25U C64G C94U C124G | -6.12
A26U A41C | -4.03
A24U G61A | -5.9
G23A C64G C115U C123G | -6.62
A26U C72U | -2.63
A27C C56A | -3.22
A27C C56G | -3.34
A27C C31U A46C A84C C89A G110U U112A C123U U125A | -6.63
A24U C40U | -6.96
G25A C64G U81A C114A | -5.93
A27G C88A | -2.13
C22U C70U C88G | -6.53

Variant | polymerase ribozyme fitness (log ratio)
A27C C56A C76G | -3.81
A24U G69U C88A C114A | -6.87
A24G A111G | -2.06
A27G A83G C86U | -2.33
A26U G61C | -3.63
A27G A41U G48A C88A | -5.84
C22G G52C C79U | -4.14
C22G G42C | -3.87
A27G C28A G52U | -5.13
A27G C64U | -2.01
C22G G61A C86U C123A | -4.09
A27C U54C | -2.56
A26G G45A G48U | -3.98
A26U G52A U112A U131C | -2.99
A24G G77A C115U | -2.98
C22G U32G C49A G61U U87C | -4.78
C22U C56A C72A A83C U96A | -5.56
C22U A50C C124A | -3.54
A27G C49A U96A | -3.34
A24U G42U A43U C94G U112A U129A | -7.92
A26G C123G C124U G135U | -1.25
A26U C49U A66G A84C C124G | -4.9
A27C C62A | -2.54
A26U C49U C98U | -4.89

Variant | polymerase ribozyme fitness (log ratio)
G25C G35A G44C C114G | -5.95
A27G C86U C94U | -1.98
A27G G45C G63A C104A U131C | -6.14
A27C A95U C114U | -4.15
A26G A29G G39U | -3.81
A27G C89A U92A C98A A111C | -6.08
A24G G63U | -3.19
A24G C102U | -3.7
C22U G39A | -4.66
G23A C72G | -4.87
G23A C72U | -5.21
A27C C82G G110U | -5.23
C22G U112A A118U | -1.75
A26U C62U U78C G128C | -6.34
A24G C49A G65C C70A G113U | -6.47
A27C A84G | -5
G25U C53A G69U G107A U116G C123U | -7.07
C22G G35C C64U | -6.13
A27G A84C C99U | -5.83
A27G U38C C40G C49G G63U A95G U132A | -3.68
A24G C62A | -2.63
A24U A27U C28U G36U A111U | -5.92
G25A G63C | -6.68
A27C U78A | -3.62

Variant | polymerase ribozyme fitness (log ratio)
A26U G57U | -4.04
A27G G42U A75G | -3.6
A27C C72U C124A | -1.07
G25U G39U U106A C114U | -5.15
C22G G36C | -3.09
C22U C72A A100C | -4.76
A24G G47C A90U | -4.32
A24C A27G | -6.86
A27C G57U G69U C124G | 0.217
A24G G69U A100U | -1.09
C22U A50C C102U C124G | -5.01
A27C C28A A103U A105U U106G A111U G117U C123U | -5.3
A24U U116C G128U | -6.51
C22U A74C C79U A121U | -2.29
G25U C80A C88U A121C | -6.51
A26U A37U G52U A90U U112C | -6.53
A27G C56A C72U G120U | -2.12
G23U G60U G65C C99G C123U | -7.81
A26G G45C A75U | -4.25
A27G A41U | -2.67
G25C G61U | -3.53
G23A C53U | -5.33
A26G C28G C70G C85U C98U G107U A119G G122A | -6.27
A26G U38A G39U | -4.5

Variant | polymerase ribozyme fitness (log ratio)
G25U A37U | -5.61
A26G U30A C104G C115A | -5.53
C22G G58C | -2.94
C22U A105U | -6.8
A24U A46G G48A C70A A111G | -6.69
A26U G44U C64G C89U U112G | -6.55
G25U C56G G63C A121U | -5.04
C22G C72G C124A | -2.22
A26U G47U C64A C85U G107C A108G G110C | -6.9
A24G C70G C97A A121G | -5.13
A24G A29U G44U C80A | -6.46
C22U C56G | -3.79
A26U C72U C123U | -2.2
A26U A121U | -0.422
G23U G45A C56U C98A U112G | -6.47
G23A G77A | -6.34
A27U A118G | -3.19
A24G A41C | -2.27
G23A C31U G122U C124G | -7.15
A27G G135U | -2.21
G23U A26C A43U G63U G93A G117C | -6.53
A26U C94U | -2.76
A24G G42U G45A C72G C88A A121G U125C | -2.21
C22U A121U | -2.45

Variant | polymerase ribozyme fitness (log ratio)
A24G G48A C64U U81C A108U G120C | -6
A27G C40U C49G C73U | -2.98
A24G C62U C104A C115A G135C | -4.17
A26G U130A | -3.31
A27C A41C U106C | -5.25
A26U G45A U54A | -4.06
C22U A90U U112G | -7.35
C22G C86G G110U A121U | -3.31
C22G C80U | -4.33
C22G G93U | -3.03
C22U G65U C72G C124U | -5.7
A24C A43U C49A C79A C98U C114U | -7.85
A27G C49G | -2.37
A27G C49U | -2.19
A26U G71A | -3.13
A24G C82G A84U U106C | -2.06
A26G U112G | -0.342
A27C A50C A84C G120A | -3.23
A24U A84U C114U G122A U132C | -6.39
G25A G61U | -3.17
A24G A90U | -2.52
C22G G71U | -3.63
A24U A41G A43C U96A C102U A111U | -6.49
